Where two headings read alike, the source gives them in different places. Each block holds one substance with its values, some of them ahead of it.
What was measured:
[1] = target: p53 N-terminal peptide (Homo sapiens) (UniProt P04637); settings: cited from earlier work
[2] = target: acetyltransferase p300 (UniProt Q09472)
[3] = target: p53 N-terminal peptide (Homo sapiens) (UniProt P04637); settings: cited from earlier work; remark: listed apart in the source
[4] = target: p53 N-terminal peptide (Homo sapiens) (UniProt P04637); settings: cited from earlier work; remark: listed apart in the source
[5] = target: p53 N-terminal peptide (Homo sapiens) (UniProt P04637); settings: cited from earlier work; remark: listed apart in the source

Chain of p300 Taz1 (Q09472 323-423): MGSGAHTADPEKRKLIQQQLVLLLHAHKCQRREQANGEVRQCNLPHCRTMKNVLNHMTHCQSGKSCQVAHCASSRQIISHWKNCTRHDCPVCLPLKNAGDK
Chain of p300 IBiD (Q09472 2050-2094): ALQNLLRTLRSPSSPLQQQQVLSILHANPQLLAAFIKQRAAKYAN
Chain of p300 Taz2 (Q09472 1723-1812): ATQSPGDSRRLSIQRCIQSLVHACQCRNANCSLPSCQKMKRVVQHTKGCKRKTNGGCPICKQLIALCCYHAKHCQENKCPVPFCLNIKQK
Chain of acetyltransferase p300 (Q09472 whole entry): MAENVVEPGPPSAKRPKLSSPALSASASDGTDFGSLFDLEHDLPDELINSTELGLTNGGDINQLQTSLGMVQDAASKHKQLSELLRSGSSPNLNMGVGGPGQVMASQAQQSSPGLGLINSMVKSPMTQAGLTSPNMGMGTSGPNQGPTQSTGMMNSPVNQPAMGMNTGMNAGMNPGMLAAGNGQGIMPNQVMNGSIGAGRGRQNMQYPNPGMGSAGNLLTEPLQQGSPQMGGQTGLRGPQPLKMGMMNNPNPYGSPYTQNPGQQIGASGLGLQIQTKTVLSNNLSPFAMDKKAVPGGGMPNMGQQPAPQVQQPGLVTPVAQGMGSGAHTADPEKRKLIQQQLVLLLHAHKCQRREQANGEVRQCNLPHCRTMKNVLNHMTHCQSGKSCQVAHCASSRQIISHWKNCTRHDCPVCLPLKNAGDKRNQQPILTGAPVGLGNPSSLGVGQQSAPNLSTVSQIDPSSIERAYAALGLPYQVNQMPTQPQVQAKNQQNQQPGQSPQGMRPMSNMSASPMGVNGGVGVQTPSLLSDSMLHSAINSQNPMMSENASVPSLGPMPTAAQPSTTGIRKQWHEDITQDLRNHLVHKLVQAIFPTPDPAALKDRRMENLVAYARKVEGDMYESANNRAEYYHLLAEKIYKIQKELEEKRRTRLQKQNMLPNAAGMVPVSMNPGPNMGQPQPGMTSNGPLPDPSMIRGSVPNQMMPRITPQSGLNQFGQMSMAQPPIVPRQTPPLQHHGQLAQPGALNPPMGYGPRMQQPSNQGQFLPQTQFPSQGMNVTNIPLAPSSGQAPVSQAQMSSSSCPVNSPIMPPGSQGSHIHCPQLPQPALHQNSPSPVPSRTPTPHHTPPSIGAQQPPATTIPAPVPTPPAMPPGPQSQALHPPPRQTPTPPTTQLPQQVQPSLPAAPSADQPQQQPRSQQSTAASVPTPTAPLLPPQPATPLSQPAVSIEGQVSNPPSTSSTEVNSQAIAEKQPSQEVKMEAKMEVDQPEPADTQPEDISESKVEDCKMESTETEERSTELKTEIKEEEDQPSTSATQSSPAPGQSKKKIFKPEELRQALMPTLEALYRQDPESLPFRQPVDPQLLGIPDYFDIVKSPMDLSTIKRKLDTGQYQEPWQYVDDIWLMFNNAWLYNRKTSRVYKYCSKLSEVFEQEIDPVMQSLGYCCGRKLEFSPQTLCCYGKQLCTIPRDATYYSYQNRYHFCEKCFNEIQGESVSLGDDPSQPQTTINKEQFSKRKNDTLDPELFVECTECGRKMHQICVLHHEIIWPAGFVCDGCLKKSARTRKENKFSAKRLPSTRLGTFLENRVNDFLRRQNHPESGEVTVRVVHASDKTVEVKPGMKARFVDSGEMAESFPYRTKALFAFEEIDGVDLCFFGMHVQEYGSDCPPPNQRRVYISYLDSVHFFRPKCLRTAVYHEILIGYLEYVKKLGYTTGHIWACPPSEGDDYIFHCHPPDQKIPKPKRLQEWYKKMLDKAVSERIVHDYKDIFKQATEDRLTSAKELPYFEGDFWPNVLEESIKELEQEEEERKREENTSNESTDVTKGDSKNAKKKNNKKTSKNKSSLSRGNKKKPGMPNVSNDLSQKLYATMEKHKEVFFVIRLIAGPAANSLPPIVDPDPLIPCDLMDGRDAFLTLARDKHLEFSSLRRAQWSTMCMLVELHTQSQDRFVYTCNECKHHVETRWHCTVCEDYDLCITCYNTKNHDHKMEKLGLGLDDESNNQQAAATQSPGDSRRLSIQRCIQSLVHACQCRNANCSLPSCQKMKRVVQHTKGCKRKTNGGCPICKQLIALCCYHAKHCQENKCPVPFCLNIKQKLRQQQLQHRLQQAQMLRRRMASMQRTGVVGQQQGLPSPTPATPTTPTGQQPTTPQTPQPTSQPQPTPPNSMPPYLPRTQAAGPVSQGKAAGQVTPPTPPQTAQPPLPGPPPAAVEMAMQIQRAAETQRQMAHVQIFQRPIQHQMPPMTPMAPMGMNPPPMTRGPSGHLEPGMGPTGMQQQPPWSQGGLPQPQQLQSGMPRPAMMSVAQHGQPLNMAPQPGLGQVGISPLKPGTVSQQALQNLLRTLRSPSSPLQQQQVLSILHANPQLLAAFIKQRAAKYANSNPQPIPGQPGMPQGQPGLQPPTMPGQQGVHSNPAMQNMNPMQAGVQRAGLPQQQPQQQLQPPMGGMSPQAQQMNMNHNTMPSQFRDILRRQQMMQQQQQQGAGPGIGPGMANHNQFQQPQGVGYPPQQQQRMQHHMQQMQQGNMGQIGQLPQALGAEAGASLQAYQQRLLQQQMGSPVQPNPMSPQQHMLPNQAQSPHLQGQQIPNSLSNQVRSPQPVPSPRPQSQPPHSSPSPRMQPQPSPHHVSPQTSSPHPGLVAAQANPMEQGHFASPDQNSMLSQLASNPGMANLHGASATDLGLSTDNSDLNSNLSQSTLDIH
Chain of p300 Kix (Q09472 563-648): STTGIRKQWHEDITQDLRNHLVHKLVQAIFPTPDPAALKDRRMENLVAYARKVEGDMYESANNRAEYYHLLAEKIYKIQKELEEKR

Substance: p300 Kix (from UniProt Q09472)
Kd [1]: 3 µM

p300-dependent acetylation of p53 (western blot, Lys373ac), relative rate [2]: 2.3 fold
Substance: semi-synthetic full-length p53 with phosphoserine at positions 15 and 20 (from UniProt P04637 1-393) (natural protein)

Substance: p300 Taz2 (from UniProt Q09472)
Kd [3]: 0.02 µM

Substance: p300 Taz1 (from UniProt Q09472)
Kd [4]: 1 µM

Substance: p300 IBiD (from UniProt Q09472)
Kd [5]: 8 µM
